This is an account of results in article PMC5172458.

Substrate in this data set: O=c1ccn([C@H]2C[C@H](O)[C@@H](COP(=O)(O)O)O2)c(=O)[nH]1
In words: purified protein. The class given is biochemical, Escherichia coli. As to conditions: 25 °C, CH2H4folate fixed at 50 μM, TCEP.

As usually defined, the Km is the concentration of substrate that gives half-maximal velocity. The kcat is the number of substrate molecules converted per active site and unit of time at saturation.

B1: ecTSase (Escherichia coli thymidylate synthase) (Escherichia coli K-12; H147V) (protein)
chain: MKQYLELMQKVLDEGTQKNDRTGTGTLSIFGHQMRFNLQDGFPLVTTKRCHLRSIIHELLWFLQGDTNIAYLHENNVTIWDEWADENGDLGPVYGKQWRAWPTPDGRHIDQITTVLNQLKNDPDSRRIIVSAWNVGELDKMALAPCVAFFQFYVADGKLSCQLYQRSCDVFLGLPFNIASYALLVHMMAQQCDLEVGDFVWTGGDTHLYSNHMDQTHLQLSREPRPLPKLIIKRKPESIFDYRFEDFEIEGYDPHPGIKAPVAI
Take B1: the Michaelis constant (Km) worked out at 4.0 ± 1.3 µM and the turnover number (kcat) was determined as 0.61 ± 0.04 s⁻¹.
